The record followed here is patent publication US20070031331A1.

In experiment [1] the target is human CD20 (human) (UniProt P11836). The experiment is described as follows: cell-based or functional assay.
For experiment [2] the target is unchanged. Description: Scatchard analysis, cold antibody against 125I-2H7.v16 on WIL2-S cells, n=3.

human CD20 (human), sequence (P11836 whole entry): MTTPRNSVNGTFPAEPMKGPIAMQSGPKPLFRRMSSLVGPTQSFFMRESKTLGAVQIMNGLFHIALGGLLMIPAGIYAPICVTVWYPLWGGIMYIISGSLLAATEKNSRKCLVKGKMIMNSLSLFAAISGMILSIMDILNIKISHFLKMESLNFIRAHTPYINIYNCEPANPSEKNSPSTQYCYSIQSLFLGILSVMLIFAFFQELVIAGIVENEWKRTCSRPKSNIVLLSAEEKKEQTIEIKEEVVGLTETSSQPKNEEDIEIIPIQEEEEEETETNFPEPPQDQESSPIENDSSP

In experiment [1], RITUXAN® (rituximab) (antibody) yielded an ADCC: EC50(variant)/EC50(2H7.v16) of 5.3, an ADCC: EC50(variant)/EC50(RITUXAN®) of 1 and a CDC: EC50(variant)/EC50(RITUXAN®) of 1. The substance further returned a Kd in experiment [2] of 0.99 nM.
